Measurements published in the supplement of paper PMC9170038.

Test system: K4 kissing-loop RNA reporter
Test: apparent KD of K4 kissing-loop reporter; higher = weaker reporter binding
Conditions: Eterna round: R107
Method: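 RNA-MaP round R107: designed RNA switches with theophylline, tryptophan, arginine or FMN aptamers are transcribed on-chip within common flanks. They are titrated with a labelled K4 kissing-loop RNA reporter in RNA-MaP buffer (100 mM Tris pH 7.5, 80 mM KCl, 4 mM MgCl2), without ligand or with the indicated ligand. Median apparent KD per design.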

[1] = input ligand: theophylline 20 uM
[2] = input ligand: tryptophan 2.4 mM
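Further: bound reporter read as fluorescence of individual clusters on recovered sequencing chips by microscopy, with normalized cluster intensities fitted with a binding model.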

Sequence: CGGCGUGCCUUAUCCUCAUCUCUGACUCAACGAGGACCGGUACGGCCGCCACUCGGAAGAGGCAGUGAUGUUGCCUACGCCGGUG [Oronat]
- apparent KD of K4 kissing-loop reporter (input ligand: FMN 200 uM): 76.3 nM
- apparent KD of K4 kissing-loop reporter (input ligand: arginine 13.2 mM): 82.7 nM
- apparent KD of K4 kissing-loop reporter (input ligand: none): 77.3 nM
- apparent KD of K4 kissing-loop reporter [1]: 82.3 nM
- apparent KD of K4 kissing-loop reporter [2]: 81.4 nM

Sequence: CACCUGCCAUAAGGAUAUUCGUCUUUGCGCUUCCAGUGAUGUUGGAGAUCGCAACACAUGGUCAUAGAAGAAGGUAUGGUAUUAA [theeternabot_sameState_KL_FMN_B_35]
- apparent KD of K4 kissing-loop reporter (input ligand: FMN 200 uM): 154 nM
- apparent KD of K4 kissing-loop reporter (input ligand: arginine 13.2 mM): 186 nM
- apparent KD of K4 kissing-loop reporter (input ligand: none): 195 nM
- apparent KD of K4 kissing-loop reporter [1]: 191 nM
- apparent KD of K4 kissing-loop reporter [2]: 186 nM

Sequence: GGAUAGGACAGAGGAUAUCCUAAAGAGGCAAGAAUAACUUGUCUCAAAUGGAUGACCAGUGAUGUUGGAGAAGGCUGUCCUAUCG [FmnBX 6 - #SwitchBubble #StaticStem]
- apparent KD of K4 kissing-loop reporter (input ligand: FMN 200 uM): 406 nM
- apparent KD of K4 kissing-loop reporter (input ligand: arginine 13.2 mM): 194 nM
- apparent KD of K4 kissing-loop reporter (input ligand: none): 207 nM
- apparent KD of K4 kissing-loop reporter [1]: 147 nM
- apparent KD of K4 kissing-loop reporter [2]: 178 nM

Sequence: AGCUCAGAGUGACUCGAUAAGAGUCACAAACGAGGACCGGUACGGCCGCCACUCGAAAUAACGAGAGUGAUGUUCUUGCUGAGCA [FiskerMod 7 - Jieux - Same State Tryptophan A]
- apparent KD of K4 kissing-loop reporter (input ligand: FMN 200 uM): 1320 nM
- apparent KD of K4 kissing-loop reporter (input ligand: arginine 13.2 mM): 487 nM
- apparent KD of K4 kissing-loop reporter (input ligand: none): 976 nM
- apparent KD of K4 kissing-loop reporter [1]: 631 nM
- apparent KD of K4 kissing-loop reporter [2]: 386 nM

Sequence: GGUAGCAUGGCGGCCGCCACUCUUCAUUAGUGAUGUUAAUGCCGAGUGCGCUAACUCCGCCAGGAGAGGACCGGGCCAUGCUACC
- apparent KD of K4 kissing-loop reporter (input ligand: FMN 200 uM): 397 nM
- apparent KD of K4 kissing-loop reporter (input ligand: arginine 13.2 mM): 302 nM
- apparent KD of K4 kissing-loop reporter (input ligand: none): 406 nM
- apparent KD of K4 kissing-loop reporter [1]: 407 nM
- apparent KD of K4 kissing-loop reporter [2]: 185 nM

Sequence: GAGAUAGAGGCGGCCGCCACUAGUGAUGUUAGUGAUGUUAGAAAGAGAAUAGAACAGGGAUUAGAUAGGACCGGGCCAGAUGGAG [vvhmullin]
- apparent KD of K4 kissing-loop reporter (input ligand: FMN 200 uM): 64.4 nM
- apparent KD of K4 kissing-loop reporter (input ligand: arginine 13.2 mM): 46 nM
- apparent KD of K4 kissing-loop reporter (input ligand: none): 60.4 nM
- apparent KD of K4 kissing-loop reporter [1]: 62.2 nM
- apparent KD of K4 kissing-loop reporter [2]: 60.1 nM

Sequence: UUACUGAGUGAUGUUUGGAAAUAUCCUAGGCAGGAUAUGCGGAAACGCAGAAGGGCCACCUUCUAGUGAAGGAAACUUCGCUAUU [Ex FMN A 4]
- apparent KD of K4 kissing-loop reporter (input ligand: FMN 200 uM): 536 nM
- apparent KD of K4 kissing-loop reporter (input ligand: arginine 13.2 mM): 284 nM
- apparent KD of K4 kissing-loop reporter (input ligand: none): 423 nM
- apparent KD of K4 kissing-loop reporter [1]: 397 nM
- apparent KD of K4 kissing-loop reporter [2]: 379 nM

Sequence: UCCUAGGCUCGAAAGAGCCUAGGAUUUACUCAGGAUAUCCGGAAACGGAGAAGGGAGUAACUAGUGAUGUUAGGGAUUCCCUAUU
- apparent KD of K4 kissing-loop reporter (input ligand: FMN 200 uM): 552 nM
- apparent KD of K4 kissing-loop reporter (input ligand: arginine 13.2 mM): 113 nM
- apparent KD of K4 kissing-loop reporter (input ligand: none): 123 nM
- apparent KD of K4 kissing-loop reporter [1]: 131 nM
- apparent KD of K4 kissing-loop reporter [2]: 125 nM

Sequence: AUGUUGAGCGGAAGGAGCGGCUGAGCCAGUGAUGUUGGUUAAUCCAAGUGAUGUUGGAAAAGCCAGGUAGGUCGCCGCUUUACGU [whbob_SS_Arginine_B_2t144]
- apparent KD of K4 kissing-loop reporter (input ligand: FMN 200 uM): 1010 nM
- apparent KD of K4 kissing-loop reporter (input ligand: arginine 13.2 mM): 741 nM
- apparent KD of K4 kissing-loop reporter (input ligand: none): 1040 nM
- apparent KD of K4 kissing-loop reporter [1]: 926 nM
- apparent KD of K4 kissing-loop reporter [2]: 832 nM

Sequence: AAAUAGAUCAGUCAUCCAGUGAUGUUGGAAGGAGCGUGCGAAAGCACAGGUAGGUCGCCAAAAUAAAACUGGCUGAUCAAAAUAA
- apparent KD of K4 kissing-loop reporter (input ligand: FMN 200 uM): 292 nM
- apparent KD of K4 kissing-loop reporter (input ligand: arginine 13.2 mM): 292 nM
- apparent KD of K4 kissing-loop reporter (input ligand: none): 338 nM
- apparent KD of K4 kissing-loop reporter [1]: 453 nM
- apparent KD of K4 kissing-loop reporter [2]: 270 nM

Sequence: CGGGUACGUCAAGGAUAUAGGCAUGACGUAGUGCAGUGAUGUUGCUCGAGUCUCUUCAACUGAGGACUAGAAGGUGAUCGUAACA [theeternabot_sameState_KL_FMN_B_15]
- apparent KD of K4 kissing-loop reporter (input ligand: FMN 200 uM): 491 nM
- apparent KD of K4 kissing-loop reporter (input ligand: arginine 13.2 mM): 351 nM
- apparent KD of K4 kissing-loop reporter (input ligand: none): 631 nM
- apparent KD of K4 kissing-loop reporter [1]: 644 nM
- apparent KD of K4 kissing-loop reporter [2]: 344 nM

Sequence: GCAAGAGAGUGAUGUUGUUUUGAUCAGGGCAAGGAUAUGCUAUAUAGCAGAAGGUGCCGUUUUCUGCUGGCUUUCGUUACCCAUU [theeternabot_exclusion_KL_FMN_A_6]
- apparent KD of K4 kissing-loop reporter (input ligand: FMN 200 uM): 750 nM
- apparent KD of K4 kissing-loop reporter (input ligand: arginine 13.2 mM): 605 nM
- apparent KD of K4 kissing-loop reporter (input ligand: none): 865 nM
- apparent KD of K4 kissing-loop reporter [1]: 990 nM
- apparent KD of K4 kissing-loop reporter [2]: 708 nM

Sequence: GCCGUACGCACGGAUACCAGCACUCGGUGAGUGAUGUUCACGGUGUGGUAUUCAUCGGGCUGCCCUUGGCAGCCGUGCGUACGGC
- apparent KD of K4 kissing-loop reporter (input ligand: FMN 200 uM): 153 nM
- apparent KD of K4 kissing-loop reporter (input ligand: arginine 13.2 mM): 93.6 nM
- apparent KD of K4 kissing-loop reporter (input ligand: none): 101 nM
- apparent KD of K4 kissing-loop reporter [1]: 129 nM
- apparent KD of K4 kissing-loop reporter [2]: 107 nM

Sequence: GGGAGCAAAGCUCCCGGAUGCUAUAGUCAGGAGGAUAUCUGGAAACAGAGAAGGCCUAAGCCAGUGAUGUUGGCUAUAAGCAUCC
- apparent KD of K4 kissing-loop reporter (input ligand: FMN 200 uM): 475 nM
- apparent KD of K4 kissing-loop reporter (input ligand: arginine 13.2 mM): 406 nM
- apparent KD of K4 kissing-loop reporter (input ligand: none): 757 nM
- apparent KD of K4 kissing-loop reporter [1]: 629 nM
- apparent KD of K4 kissing-loop reporter [2]: 589 nM

Sequence: GCCGUAGAUGGAAGGAGCGUGUCAAAGUGAUGUUUUGAUUAACUCCCUUAGGGAAAGAUGGCACAGGUAGGUCGCCAUCUACGGC
- apparent KD of K4 kissing-loop reporter (input ligand: FMN 200 uM): 104 nM
- apparent KD of K4 kissing-loop reporter (input ligand: arginine 13.2 mM): 74.2 nM
- apparent KD of K4 kissing-loop reporter (input ligand: none): 102 nM
- apparent KD of K4 kissing-loop reporter [1]: 131 nM
- apparent KD of K4 kissing-loop reporter [2]: 90.4 nM

Sequence: AGACCACAAAGUGGUCAGUGUUCGCGGCAGCGAGGACCGGUACGGCCGCCACUCGCGAGUGAUGUUCGCGAGAGCCGCGAACACA [Omei KL Tryp A Exc A v8]
- apparent KD of K4 kissing-loop reporter (input ligand: FMN 200 uM): 82.7 nM
- apparent KD of K4 kissing-loop reporter (input ligand: arginine 13.2 mM): 80.9 nM
- apparent KD of K4 kissing-loop reporter (input ligand: none): 82.6 nM
- apparent KD of K4 kissing-loop reporter [1]: 93.8 nM
- apparent KD of K4 kissing-loop reporter [2]: 99.6 nM

Sequence: GUAUCGCUAGGAGGAUAUUCCGUUUUUCAUAGAAAUGGCUAUGCGGAGUGAUGUUCCGAUUUACCGGAAGAAGGCCUAGUGAUAC [FMN B 23]
- apparent KD of K4 kissing-loop reporter (input ligand: FMN 200 uM): 106 nM
- apparent KD of K4 kissing-loop reporter (input ligand: arginine 13.2 mM): 132 nM
- apparent KD of K4 kissing-loop reporter (input ligand: none): 149 nM
- apparent KD of K4 kissing-loop reporter [1]: 142 nM
- apparent KD of K4 kissing-loop reporter [2]: 142 nM

Sequence: CGUCACACUUGAUGGUUAUCCAAUGAUGAUACCAGCCGUCGAGAUGGCCCUUGGCAGCAUGUGGUACAGUGAUGUUGUACAUUGG [theeternabot_sameState_KL_Theo_A_30]
- apparent KD of K4 kissing-loop reporter (input ligand: FMN 200 uM): 392 nM
- apparent KD of K4 kissing-loop reporter (input ligand: arginine 13.2 mM): 244 nM
- apparent KD of K4 kissing-loop reporter (input ligand: none): 383 nM
- apparent KD of K4 kissing-loop reporter [1]: 352 nM
- apparent KD of K4 kissing-loop reporter [2]: 258 nM

Sequence: AGGGACGAUAGCGAUACCAGAGGUCGCAAAUUCGCGCCGUUUUUUAGGAAGUGAUGUUUUCUCCCUUGGCAGCGCCCUUAGAGUU [theeternabot_exclusion_KL_Theo_B_47]
- apparent KD of K4 kissing-loop reporter (input ligand: FMN 200 uM): 881 nM
- apparent KD of K4 kissing-loop reporter (input ligand: arginine 13.2 mM): 435 nM
- apparent KD of K4 kissing-loop reporter (input ligand: none): 945 nM
- apparent KD of K4 kissing-loop reporter [1]: 795 nM
- apparent KD of K4 kissing-loop reporter [2]: 688 nM
